T1: pig-type ligand peptide (1-60) (SEQ ID NO: 31) (Sus scrofa, UniProt Q9TT95)
T1 construct: made in house
T1 sequence (Q9TT95 23-82): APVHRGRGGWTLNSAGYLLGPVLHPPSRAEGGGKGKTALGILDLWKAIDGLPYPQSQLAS

T2: rat-type galanin (SEQ ID NO: 61) (Rattus norvegicus, UniProt P10683)
T2 sequence (P10683 33-61 limits assumed): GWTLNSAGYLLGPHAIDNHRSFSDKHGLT


Assays:
[1] = molecular target: T1, pig-type ligand peptide (1-60) (SEQ ID NO: 31); test: Competitive EIA of monoclonal antibodies against pig-type ligand peptide; assay type: binding; settings: B/B0 in the presence of 100 nM immunogen; HRP-labeled SEQ ID NO: 44
[2] = molecular target: T2, rat-type galanin (SEQ ID NO: 61); test: Competitive EIA of monoclonal antibodies against rat galanin; assay type: binding; settings: B/B0 in the presence of 100 nM immunogen; HRP-labeled SEQ ID NO: 44

Molecule	Reactivity Pig Ligand (SEQ ID NO: 31) [1]	Reactivity Rat Galanin (SEQ ID NO: 61) [2]
8 (protein, Porcine) MPRGCALLLASLLLASALSATLGLGSPVKEKRGWTLNSAGYLLGPHAIDNHRSFHDKYGLAGKRELEPEDEARPGGFDRLQSEDKAIRTIMEFLAFLHLKEAGALGRLPGLPSAASSEDAGQS	− (0.80 ≦ (B/B0))	− (0.80 ≦ (B/B0))
2 (protein, Rat) MNGSGSQGAENTSQEGGSGGWQPEAVLVPLFFALIFLVGTVGNALVLAVLLRGGQAVSTTNLFILNLGVADLCFILCCVPFQATIYTLDDWVFGSLLCKAVHFLIFLTMHASSFTLAAVSLDRYLAIRYPLHSRELRTPRNALAAIGLIWGLALLFSGPYLSYYRQSQLANLTVCHPAWSAPRRRAMDLCTFVFSYLLPVLVLSLTYARTLRYLWRTVDPVTAGSGSQRAKRKVTRMIIIVAVLFCLCWMPHHALILCVWFGRFPLTRATYALRILSHLVSYANSCVNPIVYALVSKHFRKGFRKICAGLLRPAPRRASGRVSILAPGNHSGSMLEQESTDLTQVSEAAGPLVPPPALPNCTASSRTLDPAC	+ ((B/B0) < 0.50)	− (0.80 ≦ (B/B0))
3 (protein, Rat) MADIQNISLDSPGSVGAVAVPVIFALIFLLGMVGNGLVLAVLLQPGPSAWQEPSSTTDLFILNLAVADLCFILCCVPFQAAIYTLDAWLFGAFVCKTVHLLIYLTMYASSFTLAAVSLDRYLAVRHPLRSRALRTPRNARAAVGLVWLLAALFSAPYLSYYGTVRYGALELCVPAWEDARRRALDVATFAAGYLLPVAVVSLAYGRTLCFLWAAVGPAGAAAAEARRRATGRAGRAMLAVAALYALCWGPHHALILCFWYGRFAFSPATYACRLASHCLAYANSCLNPLVYSLASRHFRARFRRLWPCGRRRHRHHHRAHRALRRVQPASSGPAGYPGDARPRGWSMEPRGDALRGGGETRLTLSPRGPQ	± (0.50 ≦ (B/B0) < 0.80)	− (0.80 ≦ (B/B0))
6 (protein, Rat) MADIQNISLDSPGSVGAVAVPVIFALIFLLGMVGNGLVLAVLLQPGPSAWQEPSSTTDLFILNLAVADLCFILCCVPFQAAIYTLDAWLFGAFVCKTVHLLIYLTMYASSFTLAAVSLDRYLAVRHPLRSRALRTPRNARAAVGLVWLLAALFSAPYLSYYGTVRYGALELCVPAWEDARRRALDVATFAAGYLLPVAVVSLAYGRTLCFLWAAVGPAGAAAAEARRRATGRAGRAMLAVAALYALCWGPHHALILCFWYGRFAFSPATYACRLASHCLAYANSCLNPLVYSLASRHFRARFRRLWPCGRRRHRHHHRAHRALRRVQPASSGPAGYPGDARPRGWSMEPRGDALRGGGETRLTLSPRGPQ	+ ((B/B0) < 0.50)	− (0.80 ≦ (B/B0))

The next lines start with the values.

Reactivity Pig Ligand (SEQ ID NO: 31) [1]	Reactivity Rat Galanin (SEQ ID NO: 61) [2]	Molecule
± (0.50 ≦ (B/B0) < 0.80)	− (0.80 ≦ (B/B0))	5 (protein, Rat) MNGSGSQGAENTSQEGGSGGWQPEAVLVPLFFALIFLVGTVGNALVLAVLLRGGQAVSTTNLFILNLGVADLCFILCCVPFQATIYTLDDWVFGSLLCKAVHFLIFLTMHASSFTLAAVSLDRYLAIRYPLHSRELRTPRNALAAIGLIWGLALLFSGPYLSYYRQSQLANLTVCHPAWSAPRRRAMDLCTFVFSYLLPVLVLSLTYARTLRYLWRTVDPVTAGSGSQRAKRKVTRMIIIVAVLFCLCWMPHHALILCVWFGRFPLTRATYALRILSHLVSYANSCVNPIVYALVSKHFRKGFRKICAGLLRPAPRRASGRVSILAPGNHSGSMLEQESTDLTQVSEAAGPLVPPPALPNCTASSRTLDPAC
− (0.80 ≦ (B/B0))	− (0.80 ≦ (B/B0))	1 (protein, Rat) MELAPVNLSEGNGSDPEPPAEPRPLFGIGVENFITLVVFGLIFAMGVLGNSLVITVLARSKPGKPRSTTNLFILNLSIADLAYLLFCIPFQATVYALPTWVLGAFICKFIHYFFTVSMLVSIFTLAAMSVDRYVAIVHSRRSSSLRVSRNALLGVGFIWALSIAMASPVAYYQRLFHRDSNQTFCWEHWPNQLHKKAYVVCTFVFGYLLPLLLICFCYAKVLNHLHKKLKNMSKKSEASKKKTAQTVLVVVVVFGISWLPHHVIHLWAEFGAFPLTPASFFFRITAHCLAYSNSSVNPIIYAFLSENFRKAYKQVFKCRVCNESPHGDAKEKNRIDTPPSTNCTHV
+ ((B/B0) < 0.50)	− (0.80 ≦ (B/B0))	4 (protein, Rat) MELAPVNLSEGNGSDPEPPAEPRPLFGIGVENFITLVVFGLIFAMGVLGNSLVITVLARSKPGKPRSTTNLFILNLSIADLAYLLFCIPFQATVYALPTWVLGAFICKFIHYFFTVSMLVSIFTLAAMSVDRYVAIVHSRRSSSLRVSRNALLGVGFIWALSIAMASPVAYYQRLFHRDSNQTFCWEHWPNQLHKKAYVVCTFVFGYLLPLLLICFCYAKVLNHLHKKLKNMSKKSEASKKKTAQTVLVVVVVFGISWLPHHVIHLWAEFGAFPLTPASFFFRITAHCLAYSNSSVNPIIYAFLSENFRKAYKQVFKCRVCNESPHGDAKEKNRIDTPPSTNCTHV
